Where two headings read alike, the source gives them in different places.

The target in assay [1] is T1, soluble H-2K^b (K^bsol), heterodimer of truncated K^b heavy chain and murine β-2 microglobulin, purified empty from Drosophila cells (murine), P01901.
T1 chain 1: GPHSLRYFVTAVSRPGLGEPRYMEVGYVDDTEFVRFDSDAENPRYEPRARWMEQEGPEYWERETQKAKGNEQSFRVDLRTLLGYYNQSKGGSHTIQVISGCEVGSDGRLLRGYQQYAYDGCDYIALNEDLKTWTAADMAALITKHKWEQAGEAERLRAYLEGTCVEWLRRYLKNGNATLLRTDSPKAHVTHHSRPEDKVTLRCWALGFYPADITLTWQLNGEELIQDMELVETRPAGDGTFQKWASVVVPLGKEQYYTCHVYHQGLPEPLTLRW
T1 chain 2: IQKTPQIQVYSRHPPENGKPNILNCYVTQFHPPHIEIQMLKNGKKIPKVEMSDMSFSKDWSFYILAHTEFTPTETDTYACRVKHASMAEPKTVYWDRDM
The assay is described as follows: competitive RIA against [^125I]VSV-8 on K^bsol, P30 gel filtration, 23° C.

Assay [2] concerns the target T1, soluble H-2K^b (K^bsol), heterodimer of ….
The target is the same in assay [3].

In turn, RGYVYQGLKS (modifications not checked) [VSV-10C] registered a Kd in assay [1] of 21 nM.

The molecule LRGYVYQGL (modifications not checked) [VSV-9N] came in with a Kd in assay [1] of 7.3 nM.

Turning to RGYVYQGL (modifications not checked) [VSV-8], in assay [1], the Kd came to 3.7 nM.

RGYVYQGL (modifications not checked) [[^125I]VSV-8]: the equilibrium dissociation constant (Kd) in assay [2] stood at 33 nM. Also, the half-time of association in assay [3] turned out to be 5 min.

In the case of RGYVYQGLK (modifications not checked) [VSV-9C], in assay [1], the Kd came to 6.9 nM. That is a single-digit nanomolar value.

On to DLRGYVYQGL (modifications not checked) [VSV-10N], for which the Kd in assay [1] worked out at 390 nM. Against the preceding molecule, the Kd is about 57-fold higher.

These data come from patent US20030077318A1.
